Source: patent US11857697B2, “Compositions and methods for obtaining 3-dimensional lung-like epithelium and related uses thereof” (THE REGENTS OF THE UNIVERSITY OF MICHIGAN, priority 2017, dated 2024)
Entries after “also recorded” stand apart in the source; their conditions may differ.

Columns and labels:
[1] = tested on: e13.5 CD1 mouse epithelial lung buds; assay: EdU incorporation quantified by flow cytometry in cultured mouse lung buds; format: cell-based; conditions: 50-100 ng/mL FGF7 versus 1-10 ng/mL, one week culture, 1 hour EdU pulse
Experimental: Epithelial lung buds were dissected from e13.5 CD1 mice and plated in a matrigel droplet as described above. 3-4 individual buds from one mouse were placed in each droplet and were pooled to serve as a single biological replicate. Three droplets (corresponding to 3 independent biological samples) were assigned to each experimental group, receiving either 1, 10, 50 or 100 ng/mL of FGF7 for 7 days. Media was changed every 2-3 days. Cells were incubated with EdU for 1 hour and stained with the Click-It EdU Alexa Fluor 488 system (ThermoFisher Cat# C10337) according to the manufacturer's instructions. As a control, wells that received 10 ng/mL of FGF7 for 7 days were taken through the EdU steps but were not stained were used to set the gates. For analysis, lung buds were broken into a single cell suspension. 1 mL of accutase (Sigma Cat# A6964) was added to a 15 mL conical tube containing pooled epithelial buds and cells were incubated at 37 degrees Celsius with frequent visual inspection until clumps of cells were no longer visible. 3 mL of basal media (see below) was added to each tube, and cells were centrifuged at 300 g for 5 minutes at 4 degrees Celsius. The supernatant was then withdrawn, and cells were resuspended with 1 mL sterile PBS, filtered through a 70 uM strainer to remove any cell clumps and transferred to a cell sorting tube. […]

human fetal lung buds = assay: Marker expression (QRT-PCR, immunostaining) in cultured human fetal lung buds; format: cell-based
Experimental: RNA was extracted using the MagMAX-96 Total RNA Isolation System (Life Technologies). RNA quality and concentration was determined on a Nanodrop 2000 spectrophotometer (Thermo Scientific). 100 ng of RNA was used to generate a cDNA library using the SuperScript VILO cDNA master mix kit (Invitrogen) according to manufacturer's instructions. qRT-PCR analysis was conducted using Quantitect SYBR Green Master Mix (Qiagen) on a Step One Plus Real-Time PCR system (Life Technologies). Expression was calculated as a change relative to GAPDH expression using arbitrary units, which were calculated by the following equation: [2^(GAPDH Ct−Gene Ct)]×10,000. A Ct value of 40 or greater was considered not detectable. A list of primer sequences used can be found in Table 1.
Mouse bud, human bud, and HLO tissue was fixed in 4% Paraformaldehyde (Sigma) for 2 hours and rinsed in PBS overnight. Tissue was dehydrated in an alcohol series, with 30 minutes each in 25%, 50%, 75% Methanol:PBS/0.05% Tween-20, followed by 100% Methanol, and then 100% Ethanol. Tissue was processed into paraffin using an automated tissue processor (Leica ASP300). Paraffin blocks were sectioned 5-7 uM thick, and immunohistochemical staining was performed as previously described (Spence et al., 2009). A list of antibodies, antibody information and concentrations used can be found in Table 2. […]

B1: Recombinant Human Fibroblast Growth Factor 7 (protein, UniProt P21781 32-194, looked up)
Fibroblast growth factor 7: CNDMTPEQMATNVNCSSPERHTRSYDYMEGGDIRVRRLFCRTQWYLRIDKRGKVKGTQEMKNNYNIMEIRTVAVGIVAIKGVESEFYLAMNKEGKLYAKKECNEDCNFKELILENHYNTYASAKWTHNGGEMFVALNQKGIPVRGKKTKKEQKTAHFLPMAIT
notes: Recombinant human growth factor from R&D systems, used at 10 ng/mL unless otherwise noted
Proliferation (EdU labeled cells) [1]: increased proliferation significantly; also recorded: significant increase in labeled cells | Expression of proximal airway markers P63 and SCGB1A1 (QRT-PCR) (human fetal lung buds; 4 weeks in culture, compared to 14 week old human fetal lung): significantly increased expression | SOX9 and SOX2 immunostaining (human fetal lung buds; sections and wholemount, 4 weeks in vitro): expressed both markers, but strong cytoplasmic SOX9 localization was observed
